# In publication PMC3861664 (The Journal of Biological Chemistry, 2013):
# T1: glucagon receptor extracellular domain, wild type (recombinant, soluble) (Homo sapiens)
# T1 construct: glucagon receptor (GCGR), human, extracellular domain; A biotinylated form was used for phage selections; also called GCGR ECD; WT ECD
# T1 chain: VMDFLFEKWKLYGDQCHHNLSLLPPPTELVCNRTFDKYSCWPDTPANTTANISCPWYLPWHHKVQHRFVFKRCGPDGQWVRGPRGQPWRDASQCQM
# T2: glucagon receptor extracellular domain with the naturally occurring G40S mutation (recombinant, soluble) (human)
# T2 chain: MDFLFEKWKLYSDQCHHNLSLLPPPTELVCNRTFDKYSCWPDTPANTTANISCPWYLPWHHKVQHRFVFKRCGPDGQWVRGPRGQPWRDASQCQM
# Tests used:
# [1] = molecular target: T1, glucagon receptor extracellular domain, …; experiment: AlphaScreen or HTRF; competition: soluble WT or G40S GCGR ECD against WT GCGR ECD on donor beads for binding to mAb7, its variants (IgG) or mAb1 on acceptor beads; conditions: both partners purified
# [2] = molecular target: T2, glucagon receptor extracellular domain …; experiment: AlphaScreen competition with WT ECD
binding result [1],IC50 [2],Binder
binds,87 nM,"mAb7.v19, humanized mAb7 with N97G (IgG) (antibody, V domains shown, mAb7.v1 heavy chain with N97G (CDR H3); that is the heavy chain of m13 (PDB 4LEX) with S28T and S54T put back and N97G added; as the light chain of m13 (PDB 4LEX); IgG; also called N97G containing antibody; source: recombinant antibody) VH: EVQLVESGPGLVKPSETLSLSCTVSGDSITSGFWNWIRQPPGKGLEWIGYIGFSGSTYYNPSLKSRVTISRDTSKNQYSLKLSSVTAADTAVYYCASVDGSAALDYWGQGTLVTVSS VL: DIVMTQTPLSLPVTPGQPASISCRSSQSLVHSNGNTYLHWYLQKPGQSPQLLIYKVSNRFSGVPDRFSGSGSGTDFTLKISRVEAEDVGVYYCSQSTHVPWTFGQGTKVEIK"
binds,–,"mAb7.v1, humanized version of mAb7 (IgG) (antibody, V domains shown, as the light chain of m13 (PDB 4LEX); IgG; source: recombinant antibody) VH: EVQLVESGPGLVKPSETLSLSCTVSGDSITSGFWNWIRQPPGKGLEWIGYIGFSGSTYYNPSLKSRVTISRDTSKNQYSLKLSSVTAADTAVYYCASVDNSAALDYWGQGTLVTVSS VL: DIVMTQTPLSLPVTPGQPASISCRSSQSLVHSNGNTYLHWYLQKPGQSPQLLIYKVSNRFSGVPDRFSGSGSGTDFTLKISRVEAEDVGVYYCSQSTHVPWTFGQGTKVEIK"
binds,–,"mAb7.v11, humanized mAb7 with S54T (IgG) (antibody, V domains shown, mAb7.v1 heavy chain with S54T (CDR H2); that is the heavy chain of m13 (PDB 4LEX) with S28T put back; as the light chain of m13 (PDB 4LEX); IgG; also called S54T alone; source: recombinant antibody) VH: EVQLVESGPGLVKPSETLSLSCTVSGDSITSGFWNWIRQPPGKGLEWIGYIGFTGSTYYNPSLKSRVTISRDTSKNQYSLKLSSVTAADTAVYYCASVDNSAALDYWGQGTLVTVSS VL: DIVMTQTPLSLPVTPGQPASISCRSSQSLVHSNGNTYLHWYLQKPGQSPQLLIYKVSNRFSGVPDRFSGSGSGTDFTLKISRVEAEDVGVYYCSQSTHVPWTFGQGTKVEIK"

# The next lines start with the binder.
Binder,binding result [1],IC50 [2]
"mAb1, inhibitory anti-GCGR monoclonal antibody (antibody, V domains shown, as the heavy chain of the mAb1 Fab in PDB 4LF3 and 4ERS; as the light chain of the mAb1 Fab in PDB 4LF3 and 4ERS; also called anti-GCGR mAb1) VH: QVQLVESGGGVVQPGRSLRLSCAASGFTFSSYGMHWVRQAPGKGLEWVAVMWYDGSNKDYVDSVKGRFTISRDNSKNTLYLQMNRLRAEDTAVYYCAREKDHYDILTGYNYYYGLDVWGQGTTVTVSS VL: DIQMTQSPSSLSASVGDRVTITCRASQGIRNDLGWYQQKPGKAPKRLIYAASSLESGVPSRFSGSGSGTEFTLTISSVQPEDFVTYYCLQHNSNPLTFGGGTKVEIK",binds,–
"mAb7.v35, humanized mAb7 with S54T/N97G (IgG) (antibody, V domains shown, mAb7.v1 heavy chain with S54T (CDR H2) and N97G (CDR H3); that is the heavy chain of m13 (PDB 4LEX) with S28T put back and N97G added; as the light chain of m13 (PDB 4LEX); IgG; The methods say that mutations found in the humanised background were also introduced into murine mAb7 clones; source: recombinant antibody) VH: EVQLVESGPGLVKPSETLSLSCTVSGDSITSGFWNWIRQPPGKGLEWIGYIGFTGSTYYNPSLKSRVTISRDTSKNQYSLKLSSVTAADTAVYYCASVDGSAALDYWGQGTLVTVSS VL: DIVMTQTPLSLPVTPGQPASISCRSSQSLVHSNGNTYLHWYLQKPGQSPQLLIYKVSNRFSGVPDRFSGSGSGTDFTLKISRVEAEDVGVYYCSQSTHVPWTFGQGTKVEIK",binds,21 nM
